The assay has as its target Human complement C1q (human) (UniProt P02745). The experiment in a line: ELISA.

For one substance, percent of C1q–IgG binding left with 50 µM SntA results are on record in publication PMC5964162.

Sequence of UniProt P02745 (P02745 23-245, chain 1 of 3): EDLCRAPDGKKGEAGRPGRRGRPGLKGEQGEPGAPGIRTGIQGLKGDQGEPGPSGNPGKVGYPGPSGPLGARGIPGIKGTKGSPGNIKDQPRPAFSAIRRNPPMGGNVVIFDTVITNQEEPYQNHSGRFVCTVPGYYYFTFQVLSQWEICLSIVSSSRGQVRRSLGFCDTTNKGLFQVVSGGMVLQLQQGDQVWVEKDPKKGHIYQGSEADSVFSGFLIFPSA
Sequence of UniProt P02745 (P02746 28-253, chain 2 of 3, further chain): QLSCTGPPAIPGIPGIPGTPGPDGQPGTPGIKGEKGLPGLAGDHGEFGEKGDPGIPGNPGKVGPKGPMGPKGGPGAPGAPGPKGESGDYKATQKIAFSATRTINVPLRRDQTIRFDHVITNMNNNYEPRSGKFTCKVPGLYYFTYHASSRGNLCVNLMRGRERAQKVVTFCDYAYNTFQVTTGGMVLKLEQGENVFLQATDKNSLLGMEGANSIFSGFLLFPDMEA
Sequence of UniProt P02745 (P02747 29-245, chain 3 of 3, further chain): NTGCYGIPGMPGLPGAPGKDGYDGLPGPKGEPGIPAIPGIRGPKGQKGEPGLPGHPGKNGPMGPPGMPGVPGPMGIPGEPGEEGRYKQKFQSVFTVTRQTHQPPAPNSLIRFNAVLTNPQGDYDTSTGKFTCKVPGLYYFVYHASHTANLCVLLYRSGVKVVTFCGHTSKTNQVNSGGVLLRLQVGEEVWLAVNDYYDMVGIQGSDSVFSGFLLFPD

The substance “Recombinant SntA protein of Streptococcus suis (from UniProt Q8VUN9 1-813) (natural protein)” showed a percent of C1q–IgG binding left with 50 µM SntA of 3.34%.
